B1: G-CSF: granulocyte colony stimulating factor, stimulates the production of white blood cells (protein, UniProt P09919 31-207, looked up)
Granulocyte …: TPLGPASSLPQSFLLKCLEQVRKIQGDGAALQEKLVSECATYKLCHPEELVLLGHSLGIPWAPLSSCPSQALQLAGCLSQLHSGLFLYQGLLQALEGISPELGPTLDTLQLDVADFATTIWQQMEELGMAPALQPTQGAMPAFASAFQRRAGGVLVASHLQSFLEVSYRVLRHLAQP

Test system: Candida albicans FP633
Assay: Survival of neutropenic mice with disseminated candidiasis (G-CSF and Test Compound, alone and combined)
Format: in vivo, ICR mice
Conditions: C. albicans, day 6 after infection
Experimental: Disseminated candidiasis were induced in ICR mice by the intravenous inoculation of 0.2 ml of cell suspension of Candida albicans FP633 via their lateral tail veins. Cyclophosphamide was administered intraperitoneally at 200 mg/kg 4 days before and 1 day after infection. G-CSF was administered intraperitoneally once daily for 5 days starting at 3 days before infection. Test Compound was administered once daily for 4 days starting at 1 hour after infection by intravenous injection. The survival rate (%) was calculated at 6 days after infection.
1) Survival rate of neutropenic mice infected with C. albicans on day 6 after infection

Molecule	Survival rate (Test Compound 0.2 mg/kg i.v. once daily for 4 days, G-CSF 0 μg/kg, cyclophosphamide-treated neutropenic ICR mice) [%]	Survival rate (G-CSF 2.5 μg/kg i.p. once daily for 5 days, Test Compound 0 mg/kg, neutropenic ICR mice) [%]	Survival rate (G-CSF 5 μg/kg i.p. once daily for 5 days, Test Compound 0 mg/kg, neutropenic ICR mice) [%]	Survival rate (G-CSF 10 μg/kg i.p. once daily for 5 days, Test Compound 0 mg/kg, neutropenic ICR mice) [%]
CCCCCOc1ccc(-c2cc(-c3ccc(C(=O)NC4CC(O)C(O)NC(=O)C5C(O)C(C)CN5C(=O)C(C(O)CC(N)=O)NC(=O)C(C(O)C(O)c5ccc(O)c(OS(=O)(=O)[O-])c5)NC(=O)C5CC(O)CN5C(=O)C(C(C)O)NC4=O)cc3)no2)cc1.[Na+] (stereo not shown) [Test Compound]	25	–	–	–
B1	–	0	25	50
